Laboratory results reported in US20180312877A1, “METHOD FOR ISOMERIZING DOUBLE BONDS” (Research Foundation of the City University of New York, priority 2015, published 2018).

Assay: Z-ISO in vitro enzyme assay with substrate-containing liposomes
Type: biochemical, Zea mays
Description: Z-ISO in vitro enzyme assay. Preparation of substrate-containing liposomes. To produce the substrate, 9,15,9′-tri-cis-ζ-carotene (tri) from E. coli BL21(DE3) cultures, 400 ml of Luria-Bertani medium (I % tryptone, 0.5% yeast extract and 1% NaCl) containing chloramphenicol (34 μg per ml (Sigma-Aldrich)) was inoculated with 8 ml of overnight culture containing pACCRT-EBP (no. 150). Cultures were grown in the dark at 37° C., with shaking at 160 r.p.m. for 8 h before induction with 10 mM IPTG. Cultures were further incubated at 28° C., with shaking at 100 r.p.m. for 40 h and for an additional 2 d without shaking. Cells were centrifuged at 2,600 g, and pellets were resuspended in a total of 40 ml of methanol, distributed in four conical tubes with equal volumes of extract and then sonicated twice on ice (30 s each, at 60% power) with a Vibra Cell VC600 sonicator equipped with a tapered 3-mm microtip (Sonics & Materials). Extracts were centrifuged at 2,600 g for 10 min, and supernatants were transferred to 15-ml conical tubes and evaporated under nitrogen gas in the dark. Dried samples were resolubilized in 300 μl of methanol, transferred to 1.5-ml microfuge tubes, frozen at −80° C. for 1 h and centrifuged at 16,000 g at 4° C. Extractions were then combined, and 1 ml was used to prepare liposomes. Cells also accumulate […] (di), and therefore enzymatic conversion is measured as the ratio of di to tri isomers. For preparation of liposomes, 1 ml of substrate extract (58 μM, estimated by spectroscopy, with the molar extinction coefficient for ζ-carotene, ε400, equal to 138,000) was mixed with 35 μl of soybean L-α-phosphatidylcholine (Sigma-Aldrich, 99% pure) (20 mg per ml in methanol). The mixture was dried under N2, and this was followed by addition of 800 μl sonication buffer (25 mM HEPES, pH 7.8, 100 mM NaCl and 10% glycerol) and sonication on ice with a Vibra Cell VC600 sonicator equipped with a 3-mm tapered microtip (Sonics & Materials) for 1 min, at intervals of 10 s at 20% power.
In vitro reactions. […]

B1: Z-ISO: 15-cis-ζ-carotene isomerase from Zea mays (SEQ ID NO: 12), heme b enzyme, purified as TEV-cleavable MBP fusion (protein)
chain: MASQLRLHLAATPPLLPHRRPHLPRPLCPTLNPIRAPLPPLSRVLSHARPARAVGGGIEPKEGVVAEGDESGGGPVLVGEDSAAFELKDQSVASWAYFAGILGAVLVALNVLWIDPSTGVGTKFLDAVASVSDSHEVVMLLLTIIFAVVHSGMASLRESGEKIVGERVYRVLFAGISLPLAVTTIVYFINHRYDGTQLWQVQGITGIHELLWFSSFISFFFLYPSTFNLLEVAAVDKPKLHMWETGIMRITRHPQMVGQVIWCLAHTLWIGNSVAVAASVGLISHHLFGAWNGDRRLLSRYGEAFEVLKKRTSVMPFAAIIDGRQKLPKDYHKEFFRLPYVAITMLTLGAYFAHPLMQASSYQLPW
modifications: MBP fusion, TEV-cleavable; Zea mays
- conversion of substrate to product (Z-ISO pretreated with dithionite, 10 mM final (reducing conditions)): Conversion of the substrate to product occurred
- conversion of substrate to product (as-purified enzyme (considered to be oxidized)): not functional
- conversion of substrate to product (heat-denatured Z-ISO): not functional
